The record followed here is publication PMC4597128.

The assay deals with Helicobacter pylori HP0231 (DsbK) (Helicobacter pylori). Briefly: SEC; purified His6-tagged proteins on a calibrated ENrich SEC70 column (Bio-Rad), absorbance at 280 nm; calibrated with Gel Filtration Standard (Bio-Rad).

Broadly, the stoichiometry N is a count of units in the complex or per binding partner.

Take “Helicobacter pylori HP0231 (DsbK) (enzyme)”: the stoichiometry N stood at 2.
